The values that follow are results of earlier work, collected in article PMC3600088.

One may read the Kd as the constant that tells how readily two partners part at equilibrium.

The series has as its target Protective antigen (PA) (Bacillus anthracis) (UniProt P13423).

Bounds are passed on as bounds.

As to CMG2 (from UniProt P58335), the Kd is over 0.17 nM.
